Source: US20110086029A1 (University of California, published 2011)

T1: murine N-Cadherin (murine, UniProt P15116 160-724, limits assumed)
T1 construct: The assay used to show cross-reactivity is not described
T1 sequence (looked up): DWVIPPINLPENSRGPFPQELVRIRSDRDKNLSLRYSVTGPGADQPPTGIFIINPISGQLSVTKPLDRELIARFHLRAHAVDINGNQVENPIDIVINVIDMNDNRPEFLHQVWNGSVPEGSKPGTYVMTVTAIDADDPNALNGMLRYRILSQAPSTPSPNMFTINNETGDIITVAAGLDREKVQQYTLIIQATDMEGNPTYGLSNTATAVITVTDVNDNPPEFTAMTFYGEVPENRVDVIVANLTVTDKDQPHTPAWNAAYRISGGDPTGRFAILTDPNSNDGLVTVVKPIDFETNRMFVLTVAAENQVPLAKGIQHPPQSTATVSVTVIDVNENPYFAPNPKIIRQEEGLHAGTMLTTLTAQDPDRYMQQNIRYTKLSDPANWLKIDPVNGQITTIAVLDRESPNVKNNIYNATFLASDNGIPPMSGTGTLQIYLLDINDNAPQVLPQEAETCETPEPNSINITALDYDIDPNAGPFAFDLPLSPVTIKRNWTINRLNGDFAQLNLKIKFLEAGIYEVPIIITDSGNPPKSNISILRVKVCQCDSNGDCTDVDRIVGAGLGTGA


Molecular target: T1, murine N-Cadherin
Test: assay not described

| Binder | binding result |
| --- | --- |
| N-Cadherin antibody 1H7 (monoclonal antibody produced by mouse hybridoma ATCC Accession No. PTA-9387) (antibody, V domains shown, Mouse hybridoma monoclonal antibody) VH: QVQLQQSGAELVKPGASVKLSCKASGFTFTDYLIQWVKQRSGQGLEWIGWFYPGSGSIKYNEKFKDKATLTADKSSNTVYMEISRLTSEDSAVYFCARRGDWGGFFDYWGQGTTLTVSS VL: DIVLTQSPAIMSASLGERVTMTCTASSSVSSSYLHWYQQKPGSSPKLWIFSTSNLASGVPDRFSGSGSGTSYSLTINSMEAEDAATYYCHQYHRSLTFGAGTKLELK | binds |
| N-Cadherin antibody EC4 (monoclonal antibody produced by mouse hybridoma ATCC Accession No. PTA-9388) (antibody, V domains shown, Mouse hybridoma monoclonal antibody) VH: QVKLQQSGAELARPGASVKLSCKASGYTFTSYWMQWVKQRPGQGLEWIGAIYPGDGETTYTQKFKGKATLTADKSSSTAYMQLSSLASEDSAVYYCAKGDGYWAMDYWGQGTSVTVSS VL: DIVMTQTPLSLPVSLGDQASISCRSSQSLVHSNGNTYLHWYLQKPGQSPKLLIYKVSNRFSGVPDRFSGSGSGTDFTLKISRVEAEDLGVYFCSQSTHVPLTFGAGTKLELK | binds |
